From patent US20200247894A1 (Regeneron, published 2020)

T1: Human IL2Rγ extracellular domain expressed with a C-terminal mouse IgG2a Fc tag (human)
T1 construct: whole entry is the Fc-fused construct; also called hIL-2Rg-mFc
T1 chain: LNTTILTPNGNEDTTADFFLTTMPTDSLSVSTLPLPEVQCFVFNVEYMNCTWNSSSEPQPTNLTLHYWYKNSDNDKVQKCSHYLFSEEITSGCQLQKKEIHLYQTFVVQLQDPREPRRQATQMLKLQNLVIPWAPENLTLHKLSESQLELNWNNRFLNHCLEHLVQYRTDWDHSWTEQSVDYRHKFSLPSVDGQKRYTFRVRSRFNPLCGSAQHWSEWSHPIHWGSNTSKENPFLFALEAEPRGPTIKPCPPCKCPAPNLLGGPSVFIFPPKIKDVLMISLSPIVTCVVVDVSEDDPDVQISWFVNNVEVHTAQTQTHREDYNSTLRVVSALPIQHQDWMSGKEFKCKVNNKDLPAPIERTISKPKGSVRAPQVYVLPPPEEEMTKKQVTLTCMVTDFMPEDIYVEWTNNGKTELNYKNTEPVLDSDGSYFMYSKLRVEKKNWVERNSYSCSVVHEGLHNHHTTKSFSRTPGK

T2: Mouse IL2Rγ extracellular domain expressed with a C-terminal myc-myc-hexahistidine tag (mouse)
T2 construct: whole entry is the tagged construct; also called mIL-2Rg-MMH
T2 chain: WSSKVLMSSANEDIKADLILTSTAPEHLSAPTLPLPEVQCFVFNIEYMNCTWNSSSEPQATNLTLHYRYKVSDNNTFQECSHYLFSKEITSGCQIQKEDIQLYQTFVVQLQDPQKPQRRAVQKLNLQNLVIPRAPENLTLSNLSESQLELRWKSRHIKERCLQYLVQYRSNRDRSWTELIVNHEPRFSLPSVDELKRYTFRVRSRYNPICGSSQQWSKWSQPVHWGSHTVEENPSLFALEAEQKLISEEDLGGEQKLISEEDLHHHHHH

T3: Rat IL2Rγ extracellular domain expressed with a C-terminal myc-myc-hexahistidine tag (rat)
T3 construct: whole entry is the tagged construct; also called rIL-2Rg-MMH; rat IL-2Rg-MMH
T3 chain: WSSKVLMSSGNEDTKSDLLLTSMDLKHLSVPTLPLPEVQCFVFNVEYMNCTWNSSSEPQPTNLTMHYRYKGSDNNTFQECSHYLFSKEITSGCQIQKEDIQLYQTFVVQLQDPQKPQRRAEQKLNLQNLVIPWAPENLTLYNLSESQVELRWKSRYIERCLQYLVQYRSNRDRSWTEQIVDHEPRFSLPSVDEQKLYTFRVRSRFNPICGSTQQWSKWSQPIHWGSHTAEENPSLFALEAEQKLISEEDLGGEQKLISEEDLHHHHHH

T4: Macaca fascicularis IL2Rγ extracellular domain expressed with a C-terminal myc-myc-hexahistidine tag (Macaca fascicularis)
T4 construct: whole entry is the tagged construct; also called mfIL-2Rg-MMH
T4 chain: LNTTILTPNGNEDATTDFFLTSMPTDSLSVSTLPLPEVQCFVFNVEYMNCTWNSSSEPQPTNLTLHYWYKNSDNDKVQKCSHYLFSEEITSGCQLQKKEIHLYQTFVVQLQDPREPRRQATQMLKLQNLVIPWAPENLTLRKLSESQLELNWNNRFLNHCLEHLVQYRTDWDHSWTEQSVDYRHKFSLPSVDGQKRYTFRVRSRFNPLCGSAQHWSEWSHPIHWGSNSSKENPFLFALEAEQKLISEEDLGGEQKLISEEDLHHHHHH


Experiments:
[1] = target: T1, Human IL2Rγ extracellular domain …; experiment: SPR Biacore 4000, anti-hFc-captured mAb, 25 C
Protocol: (§1) Equilibrium dissociation constants (KD values) for IL-2Rγ binding to purified anti-IL2Rγ monoclonal antibodies were determined using a Biacore 4000 instrument equipped with a real-time surface plasmon resonance biosensor. All binding studies were performed in 10 mM HEPES, 150 mM NaCl, 3 mM EDTA, and 0.05% v/v Surfactant Tween-20, pH 7.4 (HBS-ET) running buffer at 25° C. and 37° C. The Biacore sensor surface was first derivatized by amine coupling with a monoclonal mouse anti-human Fc antibody (GE, # BR-1008-39) to capture anti-IL2Rγ monoclonal antibodies.
(§2) The dissociation of monoclonal antibody bound IL2Rγ reagents were monitored for 8-10 minutes in HBS-ET running buffer. Kinetic association (kₐ) and dissociation (kd) rate constants were determined by fitting the real-time sensorgrams to a 1:1 binding model using Scrubber 2.0c curve fitting software. Binding dissociation equilibrium constants (KD) and dissociative half-lives (t_{1/2}) were calculated from the kinetic rate constants as: […]

[2] = target: T2, Mouse IL2Rγ extracellular domain …; experiment: SPR Biacore 4000, anti-hFc-captured mAb, 25 C
Protocol: as §1, §2

[3] = target: T3, Rat IL2Rγ extracellular domain …; experiment: SPR Biacore 4000, anti-hFc-captured mAb, 25 C
Protocol: as §1, §2

[4] = target: T1, Human IL2Rγ extracellular domain …; experiment: SPR Biacore 4000, anti-hFc-captured mAb, 37 C
Protocol: as §1, §2

[5] = target: T2, Mouse IL2Rγ extracellular domain …; experiment: SPR Biacore 4000, anti-hFc-captured mAb, 37 C
Protocol: as §1, §2

[6] = target: T4, Macaca fascicularis IL2Rγ extracellular …; experiment: SPR Biacore 4000, anti-hFc-captured mAb, 37 C
Protocol: as §1, §2

[7] = target: T3, Rat IL2Rγ extracellular domain …; experiment: SPR Biacore 4000, anti-hFc-captured mAb, 37 C
Protocol: as §1, §2

| 100 nM Ag Bound [2] [RU] | 100 nM Ag Bound [3] [RU] | 100 nM Ag Bound [5] [RU] | 100 nM Ag Bound [6] [RU] | Kd [6] [nM] | koff [6] [s⁻¹] | kon [6] [M⁻¹ s⁻¹] | t1/2 [6] [min] | 100 nM Ag Bound [7] [RU] | Kd [2] [nM] | koff [2] [s⁻¹] | kon [2] [M⁻¹ s⁻¹] | t1/2 [2] [min] | Kd [3] [nM] | koff [3] [s⁻¹] | kon [3] [M⁻¹ s⁻¹] | t1/2 [3] [min] | Kd [5] [nM] | koff [5] [s⁻¹] | kon [5] [M⁻¹ s⁻¹] | Binder | further results |
| --- | --- | --- | --- | --- | --- | --- | --- | --- | --- | --- | --- | --- | --- | --- | --- | --- | --- | --- | --- | --- | --- |
| 2 | 0 | 0 | 47 | 4.77 | 0.00148 | 309000 | 8 | 0 | – | – | – | – | – | – | – | – | – | – | – | H4H12858P (antibody, human IgG4 S228P, kappa, V domains shown, fully human anti-IL2Rgamma mAb, human IgG4 Fc; also called REGN9433) VH: EVQLVESGGDLVQPGGSLRLSCTASGFIFRNYAMNWVRQAPGKGLEWLSGILGSNDNTYYVDSVKGRFTISRDNSRNTLYLQMNSLRAEDSAVYYCAKGDAGGFDYWGQGTLVTVSS VL: DVVMTQSPLSLPVILGQPASISCRSSQSLVSSDGNTYLNWFQQRPGQSPRRLIYKVSNRDSGVPDRFSGSGSGTDFTLKISRVEAEDVGAYYCMQGSYWPPTFGQGTKLEIKR | 50 nM Ag Bound [1]: 46 RU; Kd [1]: 0.855 nM; koff [1]: 9.94e-05 s⁻¹; kon [1]: 116000 M⁻¹ s⁻¹; t1/2 [1]: 116 min; binding result [2]: no binding (tested: 100 nM); binding result [3]: no binding (tested: 100 nM); 50 nM Ag Bound [4]: 37 RU; Kd [4]: 1.49 nM; koff [4]: 0.00025 s⁻¹; kon [4]: 167000 M⁻¹ s⁻¹; t1/2 [4]: 46 min |
| 51 | 39 | 19 | 31 | 6.71 | 0.00216 | 322000 | 5 | 16 | 18.4 | 0.00167 | 90600 | 7 | 21.7 | 0.00153 | 70400 | 8 | 55.9 | 0.0108 | 193000 | H4H12899P (antibody, human IgG4 S228P, kappa, V domains shown, fully human anti-IL2Rgamma mAb, human IgG4 Fc) VH: QVQLVESGGDLVKPGGSLRLSCATSGFTFSDFYMTWIRQAPGKGLEWISYISNSGSIVKYADSVKGRFTISRDNAKNSLYLQMNSLRAEDTAIYYCARFYGDRWGQGTLVTVSS VL: DIQLTQSPSFLSASVGDRVTITCWASQGISTFLAWYQQKPGKAPKLLIYAASTLQSGVPSRFSGSGSGTDFTLTISSLQPEDFATYHCQQLNNYPWTFGQGTKVEIKR | t1/2 [5]: 1.1 min; Kd [7]: 51.6 nM; koff [7]: 0.00753 s⁻¹; kon [7]: 146000 M⁻¹ s⁻¹; t1/2 [7]: 1.5 min |
| 76 | 57 | 32 | 38 | 3.18 | 0.00154 | 483000 | 8 | 27 | 3.76 | 0.000467 | 124000 | 25 | 6.02 | 0.000619 | 103000 | 19 | 6.11 | 0.00317 | 519000 | H4H12900P (antibody, human IgG4 S228P, kappa, V domains shown, fully human anti-IL2Rgamma mAb, human IgG4 Fc) VH: QVQLVESGGGLVKPGGSLRLSCEASGFTFNDFYMTWIRQAPGKGLEWIAYISKSGDKMRYADSVKGRFSTSRDNAKNSLSLQMNSLRAEDTAVYYCARFYGDIWGQGTLVTVSS VL: DIQLTQSPSFLSASVGDRVTITCWASQDISSFLVWYQQKPGKAPNLLIYAASALQSGVPSRFSGSGSGTEFTLTISSLQPEDFASYYCEQLNNYPWTFGQGTKVEIKR | t1/2 [5]: 4 min; Kd [7]: 8.7 nM; koff [7]: 0.00363 s⁻¹; kon [7]: 417000 M⁻¹ s⁻¹; t1/2 [7]: 3.2 min |
